Results on two proteins are retold here after patent US20110124560A1 (University of Pennsylvania, published 2011).

Data set [1] deals with the molecule itself. The experiment in a line: gel filtration of purified protein, fractions immunoblotted with anti-FOXP3 221D (self-association). From the text:
FIG. 2A is an image of an immunoblot and a corresponding graph of the relative amounts of FOXP3a detected by the immunoblot. To generate the immunoblot, purified His-tagged FOXP3a was size fractionated by gel filtration, and the fractions were subject to immunoblotting with anti-FOXP3 antibody. ImageJ software (http://rsb.info.nih.gov/ij/) was used for relative quantification of the bands.
Full length FOXP3a (the large isoform) with a 6× His tag was expressed in Sf9 insect cells and purified by Ni-NTA column. The purified His-tagged full length FOXP3a was size fractionated, followed by SDS-PAGE and immunoblotting of the individual fractions with anti-FOXP3 mAb 221D. Purified full length FOXP3a eluted from the gel filtration column as a dominant mixture of monomers, dimers, tetramers, and a detectable amount of oligomeric species (FIG. 2A).
A general note: Size exclusion chromatography separates by hydrodynamic size, large species first.

Data set [2] concerns the molecule itself. The experiment in a line: co-immunoprecipitation from transfected HEK293T cells. An excerpt:
Full-length FOXP3 E251 and K250 deletion mutants were created by site-directed mutagenesis and subcloned into mammalian expression vectors containing either myc or HA epitope tags at the N-terminus. HEK293T cells were transfected with the myc-tagged wild type FOXP3, myc-tagged FOXP3-delE251, HA-tagged wild type FOXP3, or HA-tagged FOXP3-delE251 vectors as indicated (FIG. 2C). The HA-tagged wild type FOXP3 species was able to homo-associate with the myc-tagged wild type FOXP3, but not with the myc-tagged delE251 mutant, and vice versa (FIG. 2C). […] Thus the leucine zipper domain is essential for FOXP3 homo-association.

B1: His-tagged full length FOXP3a (other, human, UniProt Q9BZS1 1-431, looked up)
chain: MPNPRPGKPSAPSLALGPSPGASPSWRAAPKASDLLGARGPGGTFQGRDLRGGAHASSSSLNPMPPSQLQLPTLPLVMVAPSGARLGPLPHLQALLQDRPHFMHQLSTVDAHARTPVLQVHPLESPAMISLTPPTTATGVFSLKARPGLPPGINVASLEWVSREPALLCTFPNPSAPRKDSTLSAVPQSSYPLLANGVCKWPGCEKVFEEPEDFLKHCQADHLLDEKGRAQCLLQREMVQSLEQQLVLEKEKLSAMQAHLAGKMALTKASSVASSDKGSCCIVAAGSQGPVVPAWSGPREAPDSLFAVRRHLWGSHGNSTFPEFLHNMDYFKFHNMRPPFTYATLIRWAILEAPEKQRTLNEIYHWFTRMFAFFRNHPATWKNAIRHNLSLHKCFVRVESEKGAVWTVDELEFRKKRSQRPSRCSNPTPGP
notes: Expressed in Sf9 insect cells, purified by Ni-NTA; also called Full length FOXP3a (the large isoform) with a 6x His tag; purified His-tagged FOXP3a; not shown: 6x His tag
B1: the binding result in data set [1] is “binds”.

B2: FOXP3 delK250 mutant (other, human, UniProt Q9BZS1 1-431, looked up, not shown: small tags and cut ends)
chain: MPNPRPGKPSAPSLALGPSPGASPSWRAAPKASDLLGARGPGGTFQGRDLRGGAHASSSSLNPMPPSQLQLPTLPLVMVAPSGARLGPLPHLQALLQDRPHFMHQLSTVDAHARTPVLQVHPLESPAMISLTPPTTATGVFSLKARPGLPPGINVASLEWVSREPALLCTFPNPSAPRKDSTLSAVPQSSYPLLANGVCKWPGCEKVFEEPEDFLKHCQADHLLDEKGRAQCLLQREMVQSLEQQLVLEEKLSAMQAHLAGKMALTKASSVASSDKGSCCIVAAGSQGPVVPAWSGPREAPDSLFAVRRHLWGSHGNSTFPEFLHNMDYFKFHNMRPPFTYATLIRWAILEAPEKQRTLNEIYHWFTRMFAFFRNHPATWKNAIRHNLSLHKCFVRVESEKGAVWTVDELEFRKKRSQRPSRCSNPTPGP
notes: Deletion, not a substitution: K250 is removed; also called myc-delK250 FOXP3a; FOXP3 K250 deletion mutant
B2: the binding result in data set [2] is reported as “no binding”.
